Experimental data published in patent publication US20120277142A1 (HANALL BIOPHARMA, published 2012).

molecular target: T1, TNF-α (UniProt P01375 77-233, limits assumed); test: competition ELISA: sample vs plate-bound TNFRI190 for TNF-α, from IC50, relative to wild-type TNFRI126
T1 construct: also called tumor necrosis factor; ligand
Experimental: (§1) Each well was washed three times with 300 μL of washing buffer (0.05% Tween-20, PBS, pH 7.4) and incubated at room temperature for 2 hours with 300 μL of a blocking buffer (5% skim milk, PBS, pH 7.4). Then, each well was washed as mentioned above. A sample of interest was diluted to concentrations of 500 nM, 125 nM, 31 nM, 7.8 nM, 1.9 nM, 0.48 nM, 0.12 nM, and 0.03 nM in series and loaded in an amount of 100 μL into each well in duplicate. To each well was added 100 μL of 50 ng/ml TNF-α, followed by incubation at room temperature for 2 hours. After the wells were washed with a washing buffer, 100 μg/mL anti-TNF-α antibody solution was diluted 1/1000, added in an amount of 100 μL per each well, and incubated at room temperature for 2 hours. After the plates were washed with a washing buffer, a substrate was added in an amount of 100 μL to each well and reacted at room temperature for 15 min. In each well, 100 μL of the substrate 3,3′,5,5′-tetramethylbenzidine (RnD, Cat. No: DY999) was reacted at room temperature for 15 min, followed by adding 50 μL of 1.0 M sulfuric acid (Samchun Chemical, Cat. No: 52129) to each well to stop the reaction.
Affinity of Met-TNFRI and Met-TNFRI mutants for TNF-α was determined by measuring an absorbance change with concentration and evaluating IC₅₀ value by measuring an absorbance change with concentration.

T1 sequence (P01375 77-233 limits assumed): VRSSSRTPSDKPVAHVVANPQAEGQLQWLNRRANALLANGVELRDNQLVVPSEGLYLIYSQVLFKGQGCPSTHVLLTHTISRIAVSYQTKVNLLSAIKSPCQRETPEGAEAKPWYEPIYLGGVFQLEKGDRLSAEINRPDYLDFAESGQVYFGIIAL

Row | Affinity (%) | Binder
1 | 100 | Met-TNFRI126 (receptor, also called Wild-type (TNFRI126); wild-type TNFRI) MDSVCPQGKYIHPQNNSICCTKCHKGTYLYNDCPGPGQDTDCRECESGSFTASENHLRHCLSCSKCRKEMGQVEISSCTVDRDTVCGCRKNQYRHYWSENLFQCFNCSLCLNGTVHLSCQEKQNTVC
2 | 782 | TNFRI126-A20 (receptor, Met-TNFRI126 mutant made in E. coli) MDSVCPQGKYIHPQNNSICCTKCHKGTYLYNDCPGPGQDTDCRECESGSFTAEENFLPACLSCSKCRKEMGQVEISSCTVDRDTVCGCRKNQYRHYWSENLFQCFNCSLCLNGTVHLSCQEKQNTVC
3 | 1140 | TNFRI126-A26 (receptor, Met-TNFRI126 mutant made in E. coli) MDSVCPQGKYIHPQNNSICCTKCHKGTYLYNDCPGPGQDTDCRECESGSFTAIPNFLPGCLSCSKCRKEMGQVEISSCTVDRDTVCGCRKNQYRHYWSENLFQCFNCSLCLNGTVHLSCQEKQNTVC
4 | 435 | TNFRI126-A29 (receptor, Met-TNFRI126 mutant made in E. coli) MDSVCPQGKYIHPQNNSICCTKCHKGTYLYNDCPGPGQDTDCRECESGSFTAIPNFLFGCLSCSKCRKEMGQVEISSCTVDRDTVCGCRKNQYRHYWSENLFQCFNCSLCLNGTVHLSCQEKQNTVC
5 | 1430 | TNFRI126-A22 (receptor, Met-TNFRI126 mutant made in E. coli) MDSVCPQGKYIHPQNNSICCTKCHKGTYLYNDCPGPGQDTDCRECESGSFTAMENFLPGCLSCSKCRKEMGQVEISSCTVDRDTVCGCRKNQYRHYWSENLFQCFNCSLCLNGTVHLSCQEKQNTVC
6 | 952 | TNFRI126-A30 (receptor, Met-TNFRI126 mutant made in E. coli) MDSVCPQGKYIHPQNNSICCTKCHKGTYLYNDCPGPGQDTDCRECESGSFTAIPNFLPACLSCSKCRKEMGQVEISSCTVDRDTVCGCRKNQYRHYWSENLFQCFNCSLCLNGTVHLSCQEKQNTVC
7 | 894 | TNFRI126-A27 (receptor, Met-TNFRI126 mutant made in E. coli) MDSVCPQGKYIHPQNNSICCTKCHKGTYLYNDCPGPGQDTDCRECESGSFTAIPNFLLGCLSCSKCRKEMGQVEISSCTVDRDTVCGCRKNQYRHYWSENLFQCFNCSLCLNGTVHLSCQEKQNTVC
8 | 1400 | TNFRI126-A21 (receptor, Met-TNFRI126 mutant made in E. coli) MDSVCPQGKYIHPQNNSICCTKCHKGTYLYNDCPGPGQDTDCRECESGSFTAIENFLPGCLSCSKCRKEMGQVEISSCTVDRDTVCGCRKNQYRHYWSENLFQCFNCSLCLNGTVHLSCQEKQNTVC
9 | 1100 | TNFRI126-A23 (receptor, Met-TNFRI126 mutant made in E. coli) MDSVCPQGKYIHPQNNSICCTKCHKGTYLYNDCPGPGQDTDCRECESGSFTAIPNFLLACLSCSKCRKEMGQVEISSCTVDRDTVCGCRKNQYRHYWSENLFQCFNCSLCLNGTVHLSCQEKQNTVC
10 | 682 | TNFRI126-A25 (receptor, Met-TNFRI126 mutant made in E. coli) MDSVCPQGKYIHPQNNSICCTKCHKGTYLYNDCPGPGQDTDCRECESGSFTAIPNFLFACLSCSKCRKEMGQVEISSCTVDRDTVCGCRKNQYRHYWSENLFQCFNCSLCLNGTVHLSCQEKQNTVC
11 | 1060 | TNFRI126-A24 (receptor, Met-TNFRI126 mutant made in E. coli) MDSVCPQGKYIHPQNNSICCTKCHKGTYLYNDCPGPGQDTDCRECESGSFTAIPNFLIACLSCSKCRKEMGQVEISSCTVDRDTVCGCRKNQYRHYWSENLFQCFNCSLCLNGTVHLSCQEKQNTVC
12 | 482 | TNFRI126-A19 (receptor, Met-TNFRI126 mutant made in E. coli) MDSVCPQGKYIHPQNNSICCTKCHKGTYLYNDCPGPGQDTDCRECESGSFTADENFLPACLSCSKCRKEMGQVEISSCTVDRDTVCGCRKNQYRHYWSENLFQCFNCSLCLNGTVHLSCQEKQNTVC

molecular target: T1, TNF-α; test: cell-based or functional assay

Row | Binder | Relative Activity (Cytotoxicity-neutralizing activity) (fold)
13 | TNFRI171-A22 (receptor) MDSVCPQGKYIHPQNNSICCTKCHKGTYLYNDCPGPGQDTDCRECESGSFTAMENFLPGCLSCSKCRKEMGQVEISSCTVDRDTVCGCRKNQYRHYWSENLFQCFNCSLCLNGTVHLSCQEKQNTVCTCHAGFFLRENECVSCSNCKKSLECTKLCLPQIENVKGTEDSGTT | 242

molecular target: T1, TNF-α; test: competition ELISA: sample vs plate-bound TNFRI190 for TNF-α, from IC50, relative to wild-type TNFRI126; remark: another data set of the same source
Experimental: as §1
The affinity of the Met-TNFRI for TNF-α was assayed using the same procedure as in [Experimental Example 1]

Row | Relative Affinity for Ligand (%) | Binder
14 | 463 | TNFRI126-S59 (receptor, Met-TNFRI126 superlead mutant made in E. coli) MDSVCPQGKYIHPQNNSICCTKCHKGTYVYNDCPGPGQDTDCRECESGSFTAHENFLPACLSCSKCRKEMGQVEISSCTVDRDTVCGCRKNQYRHYWSENLFQCFNCSLCLNGTVHLSCQEQQNTVC
15 | 448 | TNFRI126-S54 (receptor, Met-TNFRI126 superlead mutant made in E. coli) MDSVCPQGKYIHPQNNSICCTKCHKGTYVYNDCPGPGQDTDCRECESGSFTAIENFLPACLSCSKCRKEMGQVEISSCTVDRDTVCGCRKNQYRHYWSENLFQCFNCSLCLNGTVHLSCQENQNTVC
16 | 412 | TNFRI126-S46 (receptor, Met-TNFRI126 superlead mutant made in E. coli) MDSVCPQGKYIHPQNNSICCTKCHKGTYVYNDCPGPGQDTDCRECESGSFTAIENFLPGCLSCSKCRKEMGQVEISSCTVDRDTVCGCRKNQYRHYWSENLFQCFNCSLCLNGTVHLSCQEKQNTVC
17 | 477 | TNFRI126-S48 (receptor, Met-TNFRI126 superlead mutant made in E. coli) MDSVCPQGKYIHPQNNSICCTKCHKGTYVYNDCPGPGQDTDCRECESGSFTAIPNFLPGCLSCSKCRKEMGQVEISSCTVDRDTVCGCRKNQYRHYWSENLFQCFNCSLCLNGTVHLSCQEKQNTVC
18 | 602 | TNFRI126-S56 (receptor, Met-TNFRI126 superlead mutant made in E. coli) MDSVCPQGKYIHPQNNSICCTKCHKGTYVYNDCPGPGQDTDCRECESGSFTAMENFLPACLSCSKCRKEMGQVEISSCTVDRDTVCGCRKNQYRHYWSENLFQCFNCSLCLNGTVHLSCQEQQNTVC
19 | 486 | TNFRI126-S63 (receptor, Met-TNFRI126 superlead mutant made in E. coli) MDSVCPQGKYIHPQNNSICCTKCHKGTYVYNDCPGPGQDTDCRECESGSFTAMENFLPGCLSCSKCRKEMGQVEISSCTVDRDTVCGCRKNQYRHYWSENLFQCFNCSLCLNGTVHLSCQENQNTVC
20 | 522 | TNFRI126-S53 (receptor, Met-TNFRI126 superlead mutant made in E. coli) MDSVCPQGKYIHPQNNSICCTKCHKGTYVYNDCPGPGQDTDCRECESGSFTAIENFLPACLSCSKCRKEMGQVEISSCTVDRDTVCGCRKNQYRHYWSENLFQCFNCSLCLNGTVHLSCQEQQNTVC
21 | 543 | TNFRI126-S62 (receptor, Met-TNFRI126 superlead mutant made in E. coli) MDSVCPQGKYIHPQNNSICCTKCHKGTYVYNDCPGPGQDTDCRECESGSFTAIENFLPGCLSCSKCRKEMGQVEISSCTVDRDTVCGCRKNQYRHYWSENLFQCFNCSLCLNGTVHLSCQEQQNTVC
22 | 432 | TNFRI126-S41 (receptor, Met-TNFRI126 superlead mutant made in E. coli) MDSVCPQGKYIHPQNNSICCTKCHKGTYVYNDCPGPGQDTDCRECESGSFTAHENFLPACLSCSKCRKEMGQVEISSCTVDRDTVCGCRKNQYRHYWSENLFQCFNCSLCLNGTVHLSCQEKQNTVC
23 | 501 | TNFRI126-S47 (receptor, Met-TNFRI126 superlead mutant made in E. coli) MDSVCPQGKYIHPQNNSICCTKCHKGTYVYNDCPGPGQDTDCRECESGSFTAMENFLPGCLSCSKCRKEMGQVEISSCTVDRDTVCGCRKNQYRHYWSENLFQCFNCSLCLNGTVHLSCQEKQNTVC
24 | 397 | TNFRI126-S60 (receptor, Met-TNFRI126 superlead mutant made in E. coli) MDSVCPQGKYIHPQNNSICCTKCHKGTYVYNDCPGPGQDTDCRECESGSFTAHENFLPACLSCSKCRKEMGQVEISSCTVDRDTVCGCRKNQYRHYWSENLFQCFNCSLCLNGTVHLSCQENQNTVC
25 | 465 | TNFRI126-S57 (receptor, Met-TNFRI126 superlead mutant made in E. coli) MDSVCPQGKYIHPQNNSICCTKCHKGTYVYNDCPGPGQDTDCRECESGSFTAMENFLPACLSCSKCRKEMGQVEISSCTVDRDTVCGCRKNQYRHYWSENLFQCFNCSLCLNGTVHLSCQENQNTVC

Continued, binder first:

Row | Binder | Relative Affinity for Ligand (%)
26 | Met-TNFRI126 (receptor, also called Wild-type (TNFRI126); wild-type TNFRI) MDSVCPQGKYIHPQNNSICCTKCHKGTYLYNDCPGPGQDTDCRECESGSFTASENHLRHCLSCSKCRKEMGQVEISSCTVDRDTVCGCRKNQYRHYWSENLFQCFNCSLCLNGTVHLSCQEKQNTVC | 100
27 | TNFRI126-S36 (receptor, Met-TNFRI126 superlead mutant made in E. coli) MDSVCPQGKYIHPQNNSICCTKCHKGTYVYNDCPGPGQDTDCRECESGSFTAMENFLPACLSCSKCRKEMGQVEISSCTVDRDTVCGCRKNQYRHYWSENLFQCFNCSLCLNGTVHLSCQEKQNTVC | 489
28 | TNFRI126-S31 (receptor, Met-TNFRI126 superlead mutant made in E. coli) MDSVCPQGKYIHPQNNSICCTKCHKGTYVYNDCPGPGQDTDCRECESGSFTAIENFLPACLSCSKCRKEMGQVEISSCTVDRDTVCGCRKNQYRHYWSENLFQCFNCSLCLNGTVHLSCQEKQNTVC | 457
